Drawing on US20060194739 (published 2006), this text covers IC50 and Ki for 13 molecules.

Non-standard residues stand in square brackets, D forms with d. No end group written: not given here. *: point of attachment. Trp(5-CN) = N#Cc1ccc2[nH]cc(C[C@H](N)C(=O)O)c2c1; Ac6c = NC1(C(=O)O)CCCCC1; Hexanoyl = CCCCCC(=O)*; Propionyl = CCC(=O)*; Ahx = NCCCCCC(=O)O

As usually defined, the IC50 is the point on the concentration scale where inhibition reaches its midpoint. A lower IC50 goes with greater potency. Broadly, the Ki is the equilibrium dissociation constant of an inhibitor or competing ligand from its target. Low values mean tighter binding, high ones weaker binding.

The target of assay [1] is ORL1 (UniProt P41146). Description: competition.
The target in assay [2] is ORL1 (UniProt P41146). Put plainly: competition. This is another data set of the same source.
Assay [3] addresses ORL1 (UniProt P41146). Description: competition, [3H]nociceptin.

ORL1, sequence (P41146 whole entry): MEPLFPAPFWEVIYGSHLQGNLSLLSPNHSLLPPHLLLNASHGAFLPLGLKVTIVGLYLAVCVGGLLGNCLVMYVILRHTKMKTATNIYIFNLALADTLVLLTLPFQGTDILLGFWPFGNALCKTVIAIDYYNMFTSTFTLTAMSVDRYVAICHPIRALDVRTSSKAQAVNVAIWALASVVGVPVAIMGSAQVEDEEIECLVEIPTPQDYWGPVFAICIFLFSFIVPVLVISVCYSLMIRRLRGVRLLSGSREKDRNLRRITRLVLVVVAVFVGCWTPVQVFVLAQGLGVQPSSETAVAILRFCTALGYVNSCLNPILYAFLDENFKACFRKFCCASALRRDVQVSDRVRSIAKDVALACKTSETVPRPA

B1: IV-23-B (peptide)
chain: Propionyl-RAYRWR-NH2
SMILES: CCC(=O)N[C@@H](CCCNC(=N)N)C(=O)N[C@@H](C)C(=O)N[C@@H](Cc1ccc(O)cc1)C(=O)N[C@@H](CCCNC(=N)N)C(=O)N[C@@H](Cc1c[nH]c2ccccc12)C(=O)N[C@@H](CCCNC(=N)N)C(N)=O
B1 came in with an IC50 in assay [1] of 182 nM. This lies in the sub-micromolar range.

B2: IV-35-B (peptide)
chain: Hexanoyl-RAYRWR-NH2
SMILES: CCCCCC(=O)N[C@@H](CCCNC(=N)N)C(=O)N[C@@H](C)C(=O)N[C@@H](Cc1ccc(O)cc1)C(=O)N[C@@H](CCCNC(=N)N)C(=O)N[C@@H](Cc1c[nH]c2ccccc12)C(=O)N[C@@H](CCCNC(=N)N)C(N)=O
On to B2, for which the IC50 in assay [1] stood at 113 nM.

B3: IV-33-B (peptide)
chain: Hexanoyl-AYYRWR-NH2
SMILES: CCCCCC(=O)N[C@@H](C)C(=O)N[C@@H](Cc1ccc(O)cc1)C(=O)N[C@@H](Cc1ccc(O)cc1)C(=O)N[C@@H](CCCNC(=N)N)C(=O)N[C@@H](Cc1c[nH]c2ccccc12)C(=O)N[C@@H](CCCNC(=N)N)C(N)=O
Take B3: in assay [1], the half-maximal inhibitory concentration (IC50) was 1020 nM.

B4: VII-57-C (peptide)
chain: Ac-RYYRW[Ahx]-NH2
SMILES: CC(=O)N[C@@H](CCCNC(=N)N)C(=O)N[C@@H](Cc1ccc(O)cc1)C(=O)N[C@@H](Cc1ccc(O)cc1)C(=O)N[C@@H](CCCNC(=N)N)C(=O)N[C@@H](Cc1c[nH]c2ccccc12)C(=O)NCCCCCC(N)=O
In assay [2], B4 gave a Ki of 41.9 nM.

B5: IV-27-B (peptide)
chain: Propionyl-RYYAWR-NH2
SMILES: CCC(=O)N[C@@H](CCCNC(=N)N)C(=O)N[C@@H](Cc1ccc(O)cc1)C(=O)N[C@@H](Cc1ccc(O)cc1)C(=O)N[C@@H](C)C(=O)N[C@@H](Cc1c[nH]c2ccccc12)C(=O)N[C@@H](CCCNC(=N)N)C(N)=O
In the case of B5, the concentration for half-maximal inhibition (IC50) in assay [1] is 400 nM.

B6: VII-51-A (peptide)
chain: Ac-RYYR[Trp(5-CN)]R-NH2
SMILES: CC(=O)N[C@@H](CCCNC(=N)N)C(=O)N[C@@H](Cc1ccc(O)cc1)C(=O)N[C@@H](Cc1ccc(O)cc1)C(=O)N[C@@H](CCCNC(=N)N)C(=O)N[C@@H](Cc1c[nH]c2ccc(C#N)cc12)C(=O)N[C@@H](CCCNC(=N)N)C(N)=O
In turn, B6 showed a Ki in assay [2] of 0.3 nM.

B7: IV-41-B (peptide)
chain: Hexanoyl-RYYRAR-NH2
SMILES: CCCCCC(=O)N[C@@H](CCCNC(=N)N)C(=O)N[C@@H](Cc1ccc(O)cc1)C(=O)N[C@@H](Cc1ccc(O)cc1)C(=O)N[C@@H](CCCNC(=N)N)C(=O)N[C@@H](C)C(=O)N[C@@H](CCCNC(=N)N)C(N)=O
Molecule B7 came in with an IC50 in assay [1] of 710 nM.

B8: VII-4-B (peptide)
chain: [Ac6c]RYYRWR-NH2
modifications: N-terminus assumed
SMILES: N=C(N)NCCC[C@H](NC(=O)[C@H](Cc1c[nH]c2ccccc12)NC(=O)[C@H](CCCNC(=N)N)NC(=O)[C@H](Cc1ccc(O)cc1)NC(=O)[C@H](Cc1ccc(O)cc1)NC(=O)[C@H](CCCNC(=N)N)NC(=O)C1(N)CCCCC1)C(N)=O
In the case of B8, the Ki in assay [2] is 9.25 nM.

B9: VII-55-A (peptide)
chain: Ac-RYY[Ahx]WR-NH2
SMILES: CC(=O)N[C@@H](CCCNC(=N)N)C(=O)N[C@@H](Cc1ccc(O)cc1)C(=O)N[C@@H](Cc1ccc(O)cc1)C(=O)NCCCCCC(=O)N[C@@H](Cc1c[nH]c2ccccc12)C(=O)N[C@@H](CCCNC(=N)N)C(N)=O
In assay [2], B9 displayed a Ki of 39 nM.

B10: IV-21-C (peptide)
chain: Propionyl-AYYRWR-NH2
SMILES: CCC(=O)N[C@@H](C)C(=O)N[C@@H](Cc1ccc(O)cc1)C(=O)N[C@@H](Cc1ccc(O)cc1)C(=O)N[C@@H](CCCNC(=N)N)C(=O)N[C@@H](Cc1c[nH]c2ccccc12)C(=O)N[C@@H](CCCNC(=N)N)C(N)=O
B10 yielded an IC50 in assay [1] of 1780 nM.

B11: IV-29-B (peptide)
chain: Propionyl-RYYRAR-NH2
SMILES: CCC(=O)N[C@@H](CCCNC(=N)N)C(=O)N[C@@H](Cc1ccc(O)cc1)C(=O)N[C@@H](Cc1ccc(O)cc1)C(=O)N[C@@H](CCCNC(=N)N)C(=O)N[C@@H](C)C(=O)N[C@@H](CCCNC(=N)N)C(N)=O
Regarding B11, the IC50 in assay [1] turned out to be 1890 nM.

B12: IV-39-B (peptide)
chain: Hexanoyl-RYYAWR-NH2
SMILES: CCCCCC(=O)N[C@@H](CCCNC(=N)N)C(=O)N[C@@H](Cc1ccc(O)cc1)C(=O)N[C@@H](Cc1ccc(O)cc1)C(=O)N[C@@H](C)C(=O)N[C@@H](Cc1c[nH]c2ccccc12)C(=O)N[C@@H](CCCNC(=N)N)C(N)=O
B12 registered a concentration for half-maximal inhibition (IC50) in assay [1] of 1000 nM.

B13: IV-12-B (peptide)
chain: Ac-R[dY]Y[dR]WR-NH2
SMILES: CC(=O)N[C@@H](CCCNC(=N)N)C(=O)N[C@H](Cc1ccc(O)cc1)C(=O)N[C@@H](Cc1ccc(O)cc1)C(=O)N[C@H](CCCNC(=N)N)C(=O)N[C@@H](Cc1c[nH]c2ccccc12)C(=O)N[C@@H](CCCNC(=N)N)C(N)=O
In turn, B13 gave an IC50 in assay [3] of 1140 nM.
